Measured values: article PMC4975481, “Importance of Hypervariable Region 2 for Stability and Affinity of a Shark Single-Domain Antibody Specific for Ebola Virus Nucleoprotein” (PLoS ONE, 2016)

Target: T1, Ebola virus Viral Protein 40 (Ebola virus (Zaire ebolavirus), strain …, UniProt Q05128)
T1 construct: also called VP40; VP 40; source: bought: IBT Bioservices
Test: SPR
Settings: both partners purified

T1 sequence (Q05128 whole entry): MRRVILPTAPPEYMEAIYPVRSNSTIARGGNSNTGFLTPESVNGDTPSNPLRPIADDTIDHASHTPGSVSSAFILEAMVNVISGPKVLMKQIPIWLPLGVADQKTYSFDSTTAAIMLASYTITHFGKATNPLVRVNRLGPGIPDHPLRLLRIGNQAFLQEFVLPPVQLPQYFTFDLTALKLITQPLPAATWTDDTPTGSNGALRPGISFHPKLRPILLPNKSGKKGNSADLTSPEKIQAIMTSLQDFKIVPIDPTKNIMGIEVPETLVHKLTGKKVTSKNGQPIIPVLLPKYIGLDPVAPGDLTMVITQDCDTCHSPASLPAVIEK

B1: shark096 (VHH)
VHH: RVDQTPRSVTKETGESLTINCVLRDASYAVGSTCWYRKKSGSTNEESISKGGRYVETVNSGSKSFSLRINDLTVEDGGTYRCGVSTYNWCGVRGLGCVHGACGDGTAVTVN
notes: also called unfused sdAb portion of DSTL096; parental sdAb
- binding result: no binding
